One assay addresses T1, integrin αvβ3 (Homo sapiens, UniProt P06756).
T1 chain 1: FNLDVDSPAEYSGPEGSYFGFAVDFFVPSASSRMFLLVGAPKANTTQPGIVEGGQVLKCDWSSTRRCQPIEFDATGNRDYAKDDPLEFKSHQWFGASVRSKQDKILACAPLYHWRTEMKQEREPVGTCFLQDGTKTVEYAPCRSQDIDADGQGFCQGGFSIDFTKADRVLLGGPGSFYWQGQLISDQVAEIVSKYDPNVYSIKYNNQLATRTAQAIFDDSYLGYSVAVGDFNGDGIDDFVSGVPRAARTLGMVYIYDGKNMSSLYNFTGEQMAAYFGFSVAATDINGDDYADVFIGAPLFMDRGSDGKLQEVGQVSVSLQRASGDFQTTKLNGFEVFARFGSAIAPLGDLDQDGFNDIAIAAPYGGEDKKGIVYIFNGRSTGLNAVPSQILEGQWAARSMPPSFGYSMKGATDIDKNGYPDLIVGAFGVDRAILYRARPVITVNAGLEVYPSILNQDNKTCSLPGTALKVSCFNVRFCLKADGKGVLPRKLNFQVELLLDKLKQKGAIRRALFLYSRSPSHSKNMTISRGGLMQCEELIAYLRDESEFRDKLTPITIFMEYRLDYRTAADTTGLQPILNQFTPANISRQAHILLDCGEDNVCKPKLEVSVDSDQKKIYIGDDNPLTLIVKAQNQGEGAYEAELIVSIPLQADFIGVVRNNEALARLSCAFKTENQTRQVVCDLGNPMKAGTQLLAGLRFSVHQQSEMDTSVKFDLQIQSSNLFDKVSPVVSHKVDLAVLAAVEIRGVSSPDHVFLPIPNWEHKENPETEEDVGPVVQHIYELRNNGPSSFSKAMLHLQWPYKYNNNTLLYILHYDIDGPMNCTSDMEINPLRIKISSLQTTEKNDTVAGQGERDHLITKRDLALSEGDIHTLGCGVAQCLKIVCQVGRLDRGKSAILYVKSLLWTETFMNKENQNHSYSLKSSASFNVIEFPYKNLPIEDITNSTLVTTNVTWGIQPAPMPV
T1 chain 2: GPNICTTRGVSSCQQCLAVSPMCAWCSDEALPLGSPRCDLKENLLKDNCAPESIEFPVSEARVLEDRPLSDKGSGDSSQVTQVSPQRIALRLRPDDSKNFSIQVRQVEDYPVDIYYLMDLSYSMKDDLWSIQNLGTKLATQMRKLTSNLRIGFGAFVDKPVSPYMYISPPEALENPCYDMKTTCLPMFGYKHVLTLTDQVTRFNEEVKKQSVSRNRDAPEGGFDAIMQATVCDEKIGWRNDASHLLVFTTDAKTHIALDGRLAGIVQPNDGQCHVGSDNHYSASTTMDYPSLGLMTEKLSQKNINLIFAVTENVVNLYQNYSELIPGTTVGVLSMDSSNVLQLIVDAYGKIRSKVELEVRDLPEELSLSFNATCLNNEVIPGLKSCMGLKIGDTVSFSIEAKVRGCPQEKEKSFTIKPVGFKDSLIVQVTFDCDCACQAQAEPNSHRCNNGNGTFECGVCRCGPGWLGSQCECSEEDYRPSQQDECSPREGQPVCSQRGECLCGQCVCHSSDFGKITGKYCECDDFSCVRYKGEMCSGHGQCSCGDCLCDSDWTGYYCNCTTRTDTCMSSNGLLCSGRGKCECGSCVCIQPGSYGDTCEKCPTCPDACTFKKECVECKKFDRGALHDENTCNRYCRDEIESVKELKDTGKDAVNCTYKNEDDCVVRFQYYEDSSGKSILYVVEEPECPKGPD
Nature of the assay: competitive solid-phase binding assay with biotinylated vitronectin.

A further assay concerns the target T2, integrin αvβ5 (Homo sapiens, UniProt P06756).
T2 chain 1: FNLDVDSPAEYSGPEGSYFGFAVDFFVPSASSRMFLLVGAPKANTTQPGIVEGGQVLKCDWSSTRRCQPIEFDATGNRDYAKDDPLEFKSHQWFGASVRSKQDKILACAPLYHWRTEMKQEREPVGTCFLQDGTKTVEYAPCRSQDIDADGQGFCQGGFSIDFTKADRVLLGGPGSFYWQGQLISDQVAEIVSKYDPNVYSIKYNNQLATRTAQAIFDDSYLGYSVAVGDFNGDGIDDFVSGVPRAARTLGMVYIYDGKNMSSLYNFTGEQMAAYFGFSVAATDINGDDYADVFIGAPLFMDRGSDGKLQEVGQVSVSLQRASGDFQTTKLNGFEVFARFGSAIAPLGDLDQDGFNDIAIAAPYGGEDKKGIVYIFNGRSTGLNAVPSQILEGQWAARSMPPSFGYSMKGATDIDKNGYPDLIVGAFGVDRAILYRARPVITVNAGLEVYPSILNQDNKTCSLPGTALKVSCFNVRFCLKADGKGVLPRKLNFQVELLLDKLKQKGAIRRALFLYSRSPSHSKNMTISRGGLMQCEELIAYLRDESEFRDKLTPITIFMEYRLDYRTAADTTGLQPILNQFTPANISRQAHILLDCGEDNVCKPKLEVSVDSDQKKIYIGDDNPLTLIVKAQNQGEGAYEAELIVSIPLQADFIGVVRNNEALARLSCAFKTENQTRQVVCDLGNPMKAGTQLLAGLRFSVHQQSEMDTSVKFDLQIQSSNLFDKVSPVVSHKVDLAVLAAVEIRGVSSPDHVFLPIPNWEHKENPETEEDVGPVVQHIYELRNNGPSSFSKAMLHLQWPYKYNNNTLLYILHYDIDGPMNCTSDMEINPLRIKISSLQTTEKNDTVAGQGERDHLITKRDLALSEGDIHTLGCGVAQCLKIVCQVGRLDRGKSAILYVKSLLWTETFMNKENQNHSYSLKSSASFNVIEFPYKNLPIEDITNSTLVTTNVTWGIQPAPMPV
T2 chain 2: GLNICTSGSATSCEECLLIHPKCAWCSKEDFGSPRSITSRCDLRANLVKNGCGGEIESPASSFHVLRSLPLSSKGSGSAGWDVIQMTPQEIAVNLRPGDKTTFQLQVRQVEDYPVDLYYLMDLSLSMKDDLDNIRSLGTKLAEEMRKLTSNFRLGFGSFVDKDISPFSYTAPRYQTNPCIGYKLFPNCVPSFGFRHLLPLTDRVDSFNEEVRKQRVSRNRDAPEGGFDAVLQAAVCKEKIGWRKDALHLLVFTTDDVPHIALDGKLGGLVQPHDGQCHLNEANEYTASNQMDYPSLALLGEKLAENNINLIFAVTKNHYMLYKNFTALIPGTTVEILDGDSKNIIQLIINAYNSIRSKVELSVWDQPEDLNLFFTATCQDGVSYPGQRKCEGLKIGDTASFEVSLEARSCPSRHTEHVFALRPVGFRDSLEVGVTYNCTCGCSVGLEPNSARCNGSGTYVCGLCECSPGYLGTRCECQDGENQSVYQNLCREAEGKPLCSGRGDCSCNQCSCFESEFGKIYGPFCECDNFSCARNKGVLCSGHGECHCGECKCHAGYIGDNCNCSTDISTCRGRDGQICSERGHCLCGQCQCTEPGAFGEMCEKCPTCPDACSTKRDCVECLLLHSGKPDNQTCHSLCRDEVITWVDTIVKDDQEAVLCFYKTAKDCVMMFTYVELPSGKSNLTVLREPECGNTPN
The description is as above.

Another assay has as its target integrin αIIbβ3 (Homo sapiens, UniProt P08514). Nature of the assay: competitive solid-phase binding assay with biotinylated fibronectin.

The text below walks through data of article PMC3043165 (2011).

One may read the IC50 as the concentration at which inhibition is half-maximal. A lower IC50 goes with greater potency.

Where no end group is shown, it is not given here. Some results are limits rather than exact numbers.

For the molecule GRGDS (not fully specified) [GRGDS-CNP 50% (70 peptides per CNP)], in the assay with integrin αvβ3, the IC50 was determined as 1.08 nM.

In the assay with integrin αvβ3, GRGDS (not fully specified) [GRGDS-CNP 20% (28 peptides per CNP)] returned a half-maximal inhibitory concentration (IC50) of 5.21 nM.

With GRGDS (not fully specified) [GRGDS-CNP 10% (14 peptides per CNP)], the IC50 in the assay with integrin αvβ3 is 12.5 nM.

Turning to GRGDS (not fully specified) [GRGDS-CNP 5% (7 peptides per CNP)], the IC50 with integrin αvβ5 is greater than 1000 nM; with integrin αvβ3, 78.5 nM; with integrin αIIbβ3, greater than 1000 nM.
